Test results from publication PMC10198558, “CryoEM structure of a post-assembly MS-ring reveals plasticity in stoichiometry and conformation” (PLOS ONE, 2023).
Several values for one entry are separate records, joined by “and”; a condition that tells them apart may be missing. Identical values can stand only once.

Biological target: the molecule itself
Assay: cryo-EM structure; purified MS-rings (0.5 mg/ml) in 50 mM Tris-HCl pH 7.5, 100 mM NaCl, 0.1% LDAO on graphene oxide grids, no crosslinking; subunits counted in en-face 2D class averages without rotational symmetry averaging; 3D maps with C32, C33, C34 (RBM3), C21, C22 (RBM2 inner) and C11 symmetry

B1: FliF (subunit of the flagellar MS-ring) (natural protein)
chain: MSATASTATQPKPLEWLNRLRANPRIPLIVAGSAAVAIVVAMVLWAKTPDYRTLFSNLSDQDGGAIVAQLTQMNIPYRFANGSGAIEVPADKVHELRLRLAQQGLPKGGAVGFELLDQEKFGISQFSEQVNYQRALEGELARTIETLGPVKSARVHLAMPKPSLFVREQKSPSASVTVTLEPGRALDEGQISAVVHLVSSAVAGLPPGNVTLVDQSGHLLTQSNTSGRDLNDAQLKFANDVESRIQRRIEAILSPIVGNGNVHAQVTAQLDFANKEQTEEHYSPNGDASKATLRSRQLNISEQVGAGYPGGVPGALSNQPAPPNEAPIATPPTNQQNAQNTPQTSTSTNSNSAGPRSTQRNETSNYEVDRTIRHTKMNVGDIERLSVAVVVNYKTLADGKPLPLTADQMKQIEDLTREAMGFSDKRGDTLNVVNSPFSAVDNTGGELPFWQQQSFIDQLLAAGRWLLVLVVAWILWRKAVRPQLTRRVEEAKAAQEQAQVRQETEEAVEVRLSKDEQLQQRRANQRLGAEVMSQRIREMSDNDPRVVALVIRQWMSNDHE
notes: FliF, flagellar M-ring protein, Salmonella enterica serovar typhimurium; Homo-oligomeric ring; 33 subunits is the most common stoichiometry (~80% of particles), 34 ~15%, 32 ~5%; No tag is mentioned; The built models cover only residues 228-438 (RBM3 and beta-collar, PDB 8FTF) and Gln-125 to Gly-227 (RBM2 inner, PDB 8FTE); also called post-assembly MS-ring; FliF protomer; source: E. coli …
stoichiometry N: 32 subunits and 33 subunits and 34 subunits
